The test deals with E. coli SEER chassis. Description: SEER library selection (frequency and enrichment by NGS). The format is cell-based, Escherichia coli. The conditions noted are these: Broad RecT Library, 10 rounds of SEER. The method, then: Therefore, it was determined whether by screening additional RecT variants, again exploiting the increased throughput of SEER compared to previous efforts, one might discover recombineering proteins further improved over Redβ and PapRecT. To this aim a second library was constructed, identifying a maximally diverse group of 109 RecT variants, 106 of which were synthesized successfully, which was called Broad RecT Library (see Methods for more details). Next, as previously described, 10 rounds of SEER selection was performed on Broad RecT Library (FIGS. 8A-8B), and upon plotting frequency against enrichment after the final selection, a clear winner emerged (FIG. 9A). […]
Native resistance alleles were identified in each of the three species for resistance to rifampicin (rif) at the rpoB locus or streptomycin (stm) at the rpsL locus. The concentration of antibiotic necessary to confer a selective benefit to the resistant allele was determined for each strain. […]
Primers were designed to amplify a 215 bp product containing the barcode region of the SSAP libraries from the pARC8 plasmid and to add on Illumina adaptors. […] Barcoded amplicons were then purified with AMPure XP magnetic beads (Beckman Coulter), pooled, and the final pooled library was quantified with the NEBNext Library Quant Kit for Illumina (NEB). […]

B1: CspRecT: RecT SSAP (UniParc ID: UPI0001837D7F) from a phage of Collinsella stercoris (protein)
chain: MNQIVKFTDDSGLAVQVTPDDVRRYICENATEKEVGLFLQLCQTQRLNPFVKDAYLVKYGGAPASMITSYQVFNRRACRDANYDGIKSGVVVLRDGDVVHKRGAACYKKAGEELIGGWAEVRFKDGRETAYAEVALDDYSTGKSNWAKMPGVMIEKCAKAAAWRLAFPDTFQGMYAAEEMDQAQQPEQVRAQAEQPVDLQPIRELFKPYCEHFGITPAEGMTAVCGAVGAEGMHSMTEQQARRARAWMEEEMAAPAVEAEYEVVDEGEVF
modifications: Collinsella stercoris DSM 13279
As for B1, the “Frequency against enrichment after final selection” value is “clear winner”.

For the origin of these results see patent publication US20220228157A1, “GENE EDITING IN DIVERSE BACTERIA” (priority 2019, published 2022).
